Source: US20110263454A1, “Methods of Identifying Functional Characteristics of Promoters, Transcription Modifying Proteins and Transcription Modulating Agents” (Salk Institute for Biological Studies, priority 2008, published 2011)

B1: RORb: RAR-related Orphan Receptor β (NR1F2), cDNA driver (protein, UniProt Q92753 1-470, looked up)
Nuclear receptor ROR-beta: MCENQLKTKADATAQIEVIPCKICGDKSSGIHYGVITCEGCKGFFRRSQQNNASYSCPRQRNCLIDRTNRNRCQHCRLQKCLALGMSRDAVKFGRMSKKQRDSLYAEVQKHQQRLQEQRQQQSGEAEALARVYSSSISNGLSNLNNETSGTYANGHVIDLPKSEGYYNVDSGQPSPDQSGLDMTGIKQIKQEPIYDLTSVPNLFTYSSFNNGQLAPGITMTEIDRIAQNIIKSHLETCQYTMEELHQLAWQTHTYEEIKAYQSKSREALWQQCAIQITHAIQYVVEFAKRITGFMELCQNDQILLLKSGCLEVVLVRMCRAFNPLNNTVLFEGKYGGMQMFKALGSDDLVNEAFDFAKNLCSLQLTEEEIALFSSAVLISPDRAWLIEPRKVQKLQEKIYFALQHVIQKNHLDDETLAKLIAKIPTITAVCNLHGEKLQVFKQSHPEIVNTLFPPLYKELFNPDCATGCK
B2: RXRb: Retinoic X Receptor β (NR2B2), cDNA driver (protein, UniProt P28702 1-533, looked up)
Retinoic acid receptor …: MSWAARPPFLPQRHAAGQCGPVGVRKEMHCGVASRWRRRRPWLDPAAAAAAAVAGGEQQTPEPEPGEAGRDGMGDSGRDSRSPDSSSPNPLPQGVPPPSPPGPPLPPSTAPSLGGSGAPPPPPMPPPPLGSPFPVISSSMGSPGLPPPAPPGFSGPVSSPQINSTVSLPGGGSGPPEDVKPPVLGVRGLHCPPPPGGPGAGKRLCAICGDRSSGKHYGVYSCEGCKGFFKRTIRKDLTYSCRDNKDCTVDKRQRNRCQYCRYQKCLATGMKREAVQEERQRGKDKDGDGEGAGGAPEEMPVDRILEAELAVEQKSDQGVEGPGGTGGSGSSPNDPVTNICQAADKQLFTLVEWAKRIPHFSSLPLDDQVILLRAGWNELLIASFSHRSIDVRDGILLATGLHVHRNSAHSAGVGAIFDRVLTELVSKMRDMRMDKTELGCLRAIILFNPDAKGLSNPSEVEVLREKVYASLETYCKQKYPEQQGRFAKLLLRLPALRSIGLKCLEHLFFFKLIGDTPIDTFLMEMLEAPHQLA
B3: TR4: Testicular Orphan Nuclear Receptor 4 (NR2C2), cDNA driver (protein, UniProt P49116 1-596, looked up)
Nuclear receptor subfamily 2 …: MTSPSPRIQIISTDSAVASPQRIQIVTDQQTGQKIQIVTAVDASGSPKQQFILTSPDGAGTGKVILASPETSSAKQLIFTTSDNLVPGRIQIVTDSASVERLLGKTDVQRPQVVEYCVVCGDKASGRHYGAVSCEGCKGFFKRSVRKNLTYSCRSNQDCIINKHHRNRCQFCRLKKCLEMGMKMESVQSERKPFDVQREKPSNCAASTEKIYIRKDLRSPLIATPTFVADKDGARQTGLLDPGMLVNIQQPLIREDGTVLLATDSKAETSQGALGTLANVVTSLANLSESLNNGDTSEIQPEDQSASEITRAFDTLAKALNTTDSSSSPSLADGIDTSGGGSIHVISRDQSTPIIEVEGPLLSDTHVTFKLTMPSPMPEYLNVHYICESASRLLFLSMHWARSIPAFQALGQDCNTSLVRACWNELFTLGLAQCAQVMSLSTILAAIVNHLQNSIQEDKLSGDRIKQVMEHIWKLQEFCNSMAKLDIDGYEYAYLKAIVLFSPDHPGLTSTSQIEKFQEKAQMELQDYVQKTYSEDTYRLARILVRLPALRLMSSNITEELFFTGLIGNVSIDSIIPYILKMETAEYNGQITGASL
B4: HNF4g: Hepatocyte Nuclear Factor γ (NR2A2), cDNA driver (protein, UniProt Q14541 1-408, looked up)
Hepatocyte nuclear factor …: MNTTDNGVNCLCAICGDRATGKHYGASSCDGCKGFFRRSIRKSHVYSCRFSRQCVVDKDKRNQCRYCRLRKCFRAGMKKEAVQNERDRISTRRSTFDGSNIPSINTLAQAEVRSRQISVSSPGSSTDINVKKIASIGDVCESMKQQLLVLVEWAKYIPAFCELPLDDQVALLRAHAGEHLLLGATKRSMMYKDILLLGNNYVIHRNSCEVEISRVANRVLDELVRPFQEIQIDDNEYACLKAIVFFDPDAKGLSDPVKIKNMRFQVQIGLEDYINDRQYDSRGRFGELLLLLPTLQSITWQMIEQIQFVKLFGMVKIDNLLQEMLLGGASNDGSHLHHPMHPHLSQDPLTGQTILLGPMSTLVHADQISTPETPLPSPPQGSGQEQYKIAANQASVISHQHLSKQKQL
B5: RXRg: Retinoic X Receptor γ (NR2B3), cDNA driver (protein, UniProt P48443 1-463, looked up)
Retinoic acid receptor …: MYGNYSHFMKFPAGYGGSPGHTGSTSMSPSAALSTGKPMDSHPSYTDTPVSAPRTLSAVGTPLNALGSPYRVITSAMGPPSGALAAPPGINLVAPPSSQLNVVNSVSSSEDIKPLPGLPGIGNMNYPSTSPGSLVKHICAICGDRSSGKHYGVYSCEGCKGFFKRTIRKDLIYTCRDNKDCLIDKRQRNRCQYCRYQKCLVMGMKREAVQEERQRSRERAESEAECATSGHEDMPVERILEAELAVEPKTESYGDMNMENSTNDPVTNICHAADKQLFTLVEWAKRIPHFSDLTLEDQVILLRAGWNELLIASFSHRSVSVQDGILLATGLHVHRSSAHSAGVGSIFDRVLTELVSKMKDMQMDKSELGCLRAIVLFNPDAKGLSNPSEVETLREKVYATLEAYTKQKYPEQPGRFAKLLLRLPALRSIGLKCLEHLFFFKLIGDTPIDTFLMEMLETPLQIT
B6: TR2: Testicular Orphan Nuclear Receptor 2 (NR2C1), cDNA driver (protein, UniProt P13056 1-603, looked up)
Nuclear receptor subfamily 2 …: MATIEEIAHQIIEQQMGEIVTEQQTGQKIQIVTALDHNTQGKQFILTNHDGSTPSKVILARQDSTPGKVFLTTPDAAGVNQLFFTTPDLSAQHLQLLTDNSPDQGPNKVFDLCVVCGDKASGRHYGAVTCEGCKGFFKRSIRKNLVYSCRGSKDCIINKHHRNRCQYCRLQRCIAFGMKQDSVQCERKPIEVSREKSSNCAASTEKIYIRKDLRSPLTATPTFVTDSESTRSTGLLDSGMFMNIHPSGVKTESAVLMTSDKAESCQGDLSTLANVVTSLANLGKTKDLSQNSNEMSMIESLSNDDTSLCEFQEMQTNGDVSRAFDTLAKALNPGESTACQSSVAGMEGSVHLITGDSSINYTEKEGPLLSDSHVAFRLTMPSPMPEYLNVHYIGESASRLLFLSMHWALSIPSFQALGQENSISLVKAYWNELFTLGLAQCWQVMNVATILATFVNCLHNSLQQDKMSTERRKLLMEHIFKLQEFCNSMVKLCIDGYEYAYLKAIVLFSPDHPSLENMEQIEKFQEKAYVEFQDYITKTYPDDTYRLSRLLLRLPALRLMNATITEELFFKGLIGNIRIDSVIPHILKMEPADYNSQIIGHSI

Each molecule was assayed on hMyoD promoter (assay: NHR-promoter luciferase screen, hMyoD promoter). Settings: MyoD promoter reporter; co-transfected HR, without or with its ligand.
Assay type: cell-based, human
Method in brief: (§1)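 CV-1 cells were co-transfected with 50 ng NHR (homodimer or NHR/RXR heterodimer), 100 ng promoter-luciferase construct and 50 ng LacZ. Luciferase was normalized to LacZ and to a no-NHR/no-ligand control.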

Row | Molecule | Luc. act., normalized to lacZ
1 | B1 | 73.9
2 | B2 | 54.3
3 | B3 | 213.9
4 | B4 | 67.2
5 | B5 | 67.6
6 | B6 | 83.1

Same assay, conditions: MyoD promoter reporter; co-transfected HR, without or with its ligand; relative to control

Row | Molecule | Normalized Luc. act., normalized to control
7 | B1 | 1.2
8 | B2 | 0.9
9 | B3 | 3.4
10 | B4 | 1.1
11 | B5 | 1.1
12 | B6 | 1.3

Same assay, conditions: hMyoD promoter-luciferase, CV-1 cells, NHR +/- ligand, control = 1.00

Row | Molecule | luciferase activity normalized to lacZ activity and to a control, hMyoD
13 | B1 | 1.17
14 | B2 | 0.86
15 | B3 | 3.38
16 | B4 | 1.06
17 | B5 | 1.07
18 | B6 | 1.31

These molecules were tested on mAgrp promoter (assay: NHR-promoter luciferase screen, mAgrp promoter). Settings: Table 6d; luciferase activity relative to control (control = 1.00).
Assay type: cell-based, mouse
Method in brief: as §1

Row | Molecule | Results of assays of transcription factor (+/- ligand) with mAgrp
19 | B1 | 1.37
20 | B2 | 1.30
21 | B3 | 2.06
22 | B4 | 0.77
23 | B5 | 1.30
24 | B6 | 0.98

Same assay, conditions: mAgrp promoter-luciferase, NHR +/- ligand, control = 1.0

Row | Molecule | luciferase/LacZ, mAgrp (selected results)
25 | B3 | 2.1

Same assay, conditions: mAgrp promoter; HR component with or without ligand

Row | Molecule | Luc. act., normalized to lacZ
26 | B1 | 54.3
27 | B2 | 51.6
28 | B3 | 81.8
29 | B4 | 30.4
30 | B5 | 51.5
31 | B6 | 39.0

Same assay, conditions: mAgrp promoter; HR component with or without ligand; relative to control

Row | Molecule | Normalized Luc. act., normalized to control
32 | B1 | 1.4
33 | B2 | 1.3
34 | B3 | 2.1
35 | B4 | 0.8
36 | B5 | 1.3
37 | B6 | 1.0

What follows are molecules tested on mPOMC promoter (assay: NHR-promoter luciferase screen, mPOMC promoter). Settings: Table 6d; luciferase activity relative to control (control = 1.00).
Assay type: cell-based, mouse
Method in brief: as §1

Row | Molecule | Results of assays of transcription factor (+/- ligand) with mPOMC
38 | B1 | 1.29
39 | B2 | 1.19
40 | B3 | 3.75
41 | B4 | 1.07
42 | B5 | 1.06
43 | B6 | 1.92

Same assay, conditions: mPOMC promoter; HR component with or without ligand

Row | Molecule | Luc. act., normalized to lacZ
44 | B1 | 88.7
45 | B2 | 81.8
46 | B3 | 258.7
47 | B4 | 73.9
48 | B5 | 73.2
49 | B6 | 132.1

Same assay, conditions: mPOMC promoter; HR component with or without ligand; relative to control

Row | Molecule | Normalized Luc. act., normalized to control
50 | B1 | 1.3
51 | B2 | 1.2
52 | B3 | 3.8
53 | B4 | 1.1
54 | B5 | 1.1
55 | B6 | 1.9

Each molecule was assayed on hIRF7 promoter (assay: NHR-promoter luciferase screen, hIRF7 promoter). Settings: IRF7 promoter reporter; HR without or with its ligand; relative to control.
Assay type: cell-based, human
Method in brief: as §1

Row | Molecule | Normalized Luc. act., normalized to control
56 | B1 | 1.6
57 | B2 | 0.3
58 | B3 | 1.9
59 | B4 | 1.2
60 | B5 | 1.0
61 | B6 | 1.0

Same assay, conditions: IRF7 promoter reporter; hormone receptor (HR) without or with its ligand

Row | Molecule | Luc. act., normalized to lacZ
62 | B1 | 40.9
63 | B2 | 8.9
64 | B3 | 48.8
65 | B4 | 31.7
66 | B5 | 27.4
67 | B6 | 25.8

Same assay, conditions: transcription factor +/- ligand; control = 1.00

Row | Molecule | hIRF7 promoter reporter activity
68 | B1 | 1.55
69 | B2 | 0.34
70 | B3 | 1.85
71 | B4 | 1.20
72 | B5 | 1.04
73 | B6 | 0.98

These molecules were tested on mAdiponectin promoter (assay: NHR-promoter luciferase screen, mAdiponectin promoter). Settings: Adiponectin; HR component without or with its ligand.
Assay type: cell-based, mouse
Method in brief: as §1

Row | Molecule | Luc. act., normalized to lacZ | Normalized Luc. act., normalized to control
74 | B1 | 82.7 | 1.3
75 | B2 | 71.8 | 1.1
76 | B3 | 296.1 | 4.7
77 | B4 | 45.4 | 0.7
78 | B5 | 69.4 | 1.1
79 | B6 | 37.5 | 0.6

Same assay, conditions: transcription factor +/- ligand; control = 1.00

Row | Molecule | mAdiponectin promoter reporter activity
80 | B1 | 1.32
81 | B2 | 1.14
82 | B3 | 4.71
83 | B4 | 0.72
84 | B5 | 1.10
85 | B6 | 0.60
